# According to the nanobody polyreactivity screen of Harvey et al. (2022):
# Experiment: yeast display, Sf9 membrane polyspecificity reagent, FACS + sequencing; frameworks hold sequencing errors
# Method in brief: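 Galactose-induced (36–48 hours) yeast carrying a synthetic nanobody display library were exposed to 10% biotinylated, detergent-solubilized Sf9 membrane reagent at 4 °C for 1 hour. FACS followed streptavidin microbead enrichment, using low and high (top ~1%) gates for expression (anti-HA) and reagent binding (streptavidin). Colony PCR, MiSeq 2 × 250 sequencing and CDR-length filtering followed. Labels for polyreactivity reflect the gate of origin.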
row,Sequence,polyreactivity (PSR sort gate)
1,QVQLVESGGALVQAGGSLRLSCAASGSIFWPNAMGWYRPAPGKERELVAAISWGTGSTYYADSVKGRFTISRDNAKNTVYLQMNSLKPEDTAVYYCAADGAYLDPYYDYWGQGTQVTVSS,low polyreactivity
2,QVQLVESGGGLVQAGGSLRLSCAASGRIFAHYAMGWYRQAPGKERELVADITDGGSTYYADSVKGRFTISRDNAKNTVYLQMNSLKPEDTAVYYCATRRGPWPSEYDSWGQGTQVTVSS,low polyreactivity
3,QVQLVDSGGGLVQAGGSLRLSCAASGSIFNRYVMGWYRQAPGKERELVAAISRRGGNTYYADSVKGRFTISRDNAKNTVYLQMNSLKPEDTAVYYCAAAYRSYKQFYSYGYEYWGQGTQVTVSS,high polyreactivity
4,QVQLVESGGGLVQAGGSLRLSCAASGSIFKPYAMGWYRQAPGKERELVAAISRSGSTYYADSVKGRFTISRDNAKNSVYLQMNSLKPEVTAVFYCAAETQARWRRYDYWGQGSQVTVSS,low polyreactivity
5,QVQLVESGGGLVQAGGSLRLSCAASGSIFGYYAMGWYRQAPGKERELVAAISVRGGSTYYADSVKGRFTISRDNAKNTVYLQMNSLKPEDTAVYYCAARISYSLSYWGQGTQVTVSS,high polyreactivity
6,QVQLVESGGGLVQAGGSLRLSCAASGFTLLKYDMGWYRQAPGKERELVAAITRRGGRTSYADSVKGRFTISRDNAKNTVYLQMNSLKPEDTAVYYCNADGDTGRFDYWGQGTQVSVSS,high polyreactivity
7,QVQLQESGGGLVQAGGSLRLSCASSGSISGPHVMGWYRQAPGKEREFVAAINVGANTYYADNVKGRFTISRDNAKNTVYLQMNSLKPEDTAVYYCAAVYYGDIGHEYWGQGTQVTVSC,low polyreactivity
8,QVQLVESGGGLVQAGGSLRLSCAASGITFGRNTMGWYRQAPGKERELVAAIRSGGSTNYADSVKGRFSISRDNAKNTVYLLMNSLKPEDPAVYYWNAQPWVRFWPYDYWGQGTQVTVSS,low polyreactivity
9,QVQLVESGGGLLQAGGSLRLSCAASGTIFKYYAMGWYRQAPGKERELVAAISRSGSNTYYADSVKGRFRISRDNAKNTVYLQMNTLKPEDTAVYYFAARARRYIYTFDSWGQGTQVTVSS,high polyreactivity
10,QVQLVESGGGLVQAGGSLRLSCAASGFIFGYYAMGWYRQAPGKERELVAAISWSGGSTYYADSVKGRFTISRDNAKNTVYLQMNSLKPEDTAVYYCATASPSTRYGRLGDYWGQGTQVTVSS,low polyreactivity
11,QDQHVESGGGLVQAGGSLRLSSAASGFTFKGNAMGWYRQGPGKVMELVATITQSAGSTYYADSVKGRFSISRDNAKNTVYLQMNSLKPEDTGVYFCNADPITLYYYSWYNYWGQGTQVTVSS,low polyreactivity
12,QVQLVESGGGLVQAGGSLRLSCAASGSTFPYNAMGWYRPAPGKERELVAAITAGGARTYYADSVKGRFTISRDNAKNTVYLQMNSLKPEDTAVYYCNKVKATSYRYYYWGQGTQVTVSS,high polyreactivity
13,QVQLVESGGGLVQAGGSLRLSCAASGSTFFPYAMGWYRQAPGKERELVAGISSDGGTSYADSVKGRFTISRDNAKNTVYLQMNSLKPEDTAVYYCAALQADRDRYPAFDLMDYWGQGTQVTVSS,low polyreactivity
14,QVQLVESGGGLVQAGGSLRLSCAASGFTFFINGMGWYRQAPGKERELVAAIRSSGASTYDADSVKGRFTISRDNAKNTVYLQMNSLQPEDTAVYYCAVPLGAVGGPVDYWGQGTQVTVSS,low polyreactivity
15,QVQLVESGGGLVQAGGSLRLSCAASGITFRVYAMGWYRPAPGKERELVAAITSSGGSTYYADSVKGRFTISRDYAKNTVYLQMNSLKPEDTAVYYCNKVTYGYAYWRYDGYDYWGQGTQVTVSS,low polyreactivity
16,QVQLVESGGGLVQAGGSLRLSCAASGRIFYVNTMGWYRPAPGKERELVATITWGGDSTYYADSVKGRFTISRDNAKNTVYLQMNSLKPEDTAVYYCAADHHDIRLNTRRNDYRGQGTQVTVSS,low polyreactivity
17,QVQLVESGGGLVQAGGSLRLSCAASGNIFETNAMGWYRQAPVKERELVAAISASGGSTYYADSVKGRFTISRDNAKNNVYLQMNSLKPEDTAVYYCNDRVDSYYGDAFDYWGQGTQVTVSS,high polyreactivity
